Data taken from article PMC6784197.

What was measured:
<CD138> Ha-La = assay: SPR; monovalent (affinity) set-up: antibody captured via anti-hFc on CM5 chip, hCD138 as analyte 66-600 nM; Biacore T200, HBS-P+ pH 7.4, 25 °C; 1:1 Langmuir model
<CD138> Ha-Lg = assay: as above
<CD138> Ha-Lw = assay: as above
<CD138> Hb-La = assay: as above
<CD138> Hb-Lg = assay: as above
<CD138> Hb-Lw = assay: as above
<CD138> Hw-La = assay: as above
[1] = target: <CD138> Hw-Lw (parent IgG); assay: as above
[2] = target: T1, hCD138 (human Syndecan-1), extracellular domain (human) (UniProt P18827); assay: SPR; bivalent (avidity) set-up: CD138 amine-coupled to CM5 chip (240 RU), IgG as analyte 33-300 nM; Biacore T200, HBS-P+ pH 7.4, 25 °C; 1:1 Langmuir model
T1 sequence: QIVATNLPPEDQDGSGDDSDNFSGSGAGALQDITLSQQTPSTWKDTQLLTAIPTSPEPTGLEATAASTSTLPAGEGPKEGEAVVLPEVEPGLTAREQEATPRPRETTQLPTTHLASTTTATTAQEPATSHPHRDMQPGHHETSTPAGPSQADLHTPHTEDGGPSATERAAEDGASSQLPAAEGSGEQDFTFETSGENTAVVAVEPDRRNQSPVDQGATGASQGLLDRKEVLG

<CD138> Hg-Lw = assay: SPR; monovalent (affinity): anti-CD138 IgG variants (30 nM) captured via anti-hFc on CM5; hCD138 as analyte, 66-600 nM; HBS-P+ pH 7.4, 25 °C; 1:1 Langmuir model; Biacore T200

B1: hCD138 (human Syndecan-1), extracellular domain (domain or fragment)
chain: QIVATNLPPEDQDGSGDDSDNFSGSGAGALQDITLSQQTPSTWKDTQLLTAIPTSPEPTGLEATAASTSTLPAGEGPKEGEAVVLPEVEPGLTAREQEATPRPRETTQLPTTHLASTTTATTAQEPATSHPHRDMQPGHHETSTPAGPSQADLHTPHTEDGGPSATERAAEDGASSQLPAAEGSGEQDFTFETSGENTAVVAVEPDRRNQSPVDQGATGASQGLLDRKEVLG
Kd (<CD138> Ha-La): 240 nM
koff (<CD138> Ha-La): 0.013 s⁻¹
kon (<CD138> Ha-La): 55000 M⁻¹ s⁻¹
Kd (<CD138> Ha-Lg): 380 nM
koff (<CD138> Ha-Lg): 0.045 s⁻¹
kon (<CD138> Ha-Lg): 120000 M⁻¹ s⁻¹
Kd (<CD138> Ha-Lw): 190 nM
koff (<CD138> Ha-Lw): 0.015 s⁻¹
kon (<CD138> Ha-Lw): 76000 M⁻¹ s⁻¹
Kd (<CD138> Hb-La): 140 nM
koff (<CD138> Hb-La): 0.025 s⁻¹
kon (<CD138> Hb-La): 170000 M⁻¹ s⁻¹
Kd (<CD138> Hb-Lg): 610 nM
koff (<CD138> Hb-Lg): 0.079 s⁻¹
kon (<CD138> Hb-Lg): 130000 M⁻¹ s⁻¹
Kd (<CD138> Hb-Lw): 150 nM
koff (<CD138> Hb-Lw): 0.027 s⁻¹
kon (<CD138> Hb-Lw): 180000 M⁻¹ s⁻¹
Kd (<CD138> Hw-La): 71 nM
koff (<CD138> Hw-La): 0.0061 s⁻¹
kon (<CD138> Hw-La): 87000 M⁻¹ s⁻¹
Kd [1]: 80 nM
koff [1]: 0.0062 s⁻¹
kon [1]: 77000 M⁻¹ s⁻¹

B2: <CD138> Hb-Lg (antibody, V domains shown)
VH: QVQLQQSGSELMMPGASVKISCKATGYTFTGYWIEWVKQRPGHGLEWIGEILPGTGRTIYNEKFKGKATFTADISSNTVQMQLSSLTSEDSAVYYCARRDYYGNFYYAMDYWGQGTSVTVSS
VL: DIQMTQSTSSLSASLGDRVTISCSASQGISNYLNWYQQKPDGTVELLIYYTSSLHSGVPSRFSGSGSGTDYSLTISNLEPEDIGTYYCQQYSKLPRTFGGGTKLEIK
Kd [2]: 2.4 nM
koff [2]: 0.0005 s⁻¹
kon [2]: 390000 M⁻¹ s⁻¹

B3: <CD138> Hg-Lw (antibody, V domains shown)
VH: QVQLQQSGSELMMPGASVKISCKATGYTFTGYWIEWVKQRPGHGLEWIGEILPGSGSTNYNEKFKGKATFTADISSNTVQMQLSSLTSEDSAVYYCARRDYYGNFYYAMDYWGQGTSVTVSS
VL: DIQMTQSTSSLSASLGDRVTISCSASQGINNYLNWYQQKPDGTVELLIYYTSTLQSGVPSRFSGSGSGTDYSLTISNLEPEDIGTYYCQQYSKLPRTFGGGTKLEIK
Kd [2]: 230 nM
koff [2]: 0.051 s⁻¹
kon [2]: 210000 M⁻¹ s⁻¹

B4: <CD138> Ha-Lw (antibody, V domains shown)
VH: QVQLQQSGSELMMPGASVKISCKATGYTFSNYWIEWVKQRPGHGLEWIGEILPGTGSTIYNEKFKGKATFTADISSNTVQMQLSSLTSEDSAVYYCARRDYYGNFYYAMDYWGQGTSVTVSS
VL: DIQMTQSTSSLSASLGDRVTISCSASQGINNYLNWYQQKPDGTVELLIYYTSTLQSGVPSRFSGSGSGTDYSLTISNLEPEDIGTYYCQQYSKLPRTFGGGTKLEIK
Kd [2]: 0.42 nM
koff [2]: 7.1e-05 s⁻¹
kon [2]: 170000 M⁻¹ s⁻¹

B5: <CD138> Ha-La (antibody, V domains shown)
VH: QVQLQQSGSELMMPGASVKISCKATGYTFSNYWIEWVKQRPGHGLEWIGEILPGTGSTIYNEKFKGKATFTADISSNTVQMQLSSLTSEDSAVYYCARRDYYGNFYYAMDYWGQGTSVTVSS
VL: DIQMTQSTSSLSASLGDRVTISCSASQGINNYLNWYQQKPDGTVELLIYYTSTLHSGVPSRFSGSGSGTDYSLTISNLEPEDIGTYYCQQYSKLPRTFGGGTKLEIK
Kd [2]: 0.4 nM
koff [2]: 6.4e-05 s⁻¹
kon [2]: 160000 M⁻¹ s⁻¹

B6: <CD138> Ha-Lg (antibody, V domains shown)
VH: QVQLQQSGSELMMPGASVKISCKATGYTFSNYWIEWVKQRPGHGLEWIGEILPGTGSTIYNEKFKGKATFTADISSNTVQMQLSSLTSEDSAVYYCARRDYYGNFYYAMDYWGQGTSVTVSS
VL: DIQMTQSTSSLSASLGDRVTISCSASQGISNYLNWYQQKPDGTVELLIYYTSSLHSGVPSRFSGSGSGTDYSLTISNLEPEDIGTYYCQQYSKLPRTFGGGTKLEIK
Kd [2]: 0.83 nM
koff [2]: 0.00029 s⁻¹
kon [2]: 160000 M⁻¹ s⁻¹

B7: <CD138> Hb-Lw (antibody, V domains shown)
VH: QVQLQQSGSELMMPGASVKISCKATGYTFTGYWIEWVKQRPGHGLEWIGEILPGTGRTIYNEKFKGKATFTADISSNTVQMQLSSLTSEDSAVYYCARRDYYGNFYYAMDYWGQGTSVTVSS
VL: DIQMTQSTSSLSASLGDRVTISCSASQGINNYLNWYQQKPDGTVELLIYYTSTLQSGVPSRFSGSGSGTDYSLTISNLEPEDIGTYYCQQYSKLPRTFGGGTKLEIK
Kd [2]: 0.28 nM
koff [2]: 0.00011 s⁻¹
kon [2]: 350000 M⁻¹ s⁻¹

B8: <CD138> Hb-La (antibody, V domains shown)
VH: QVQLQQSGSELMMPGASVKISCKATGYTFTGYWIEWVKQRPGHGLEWIGEILPGTGRTIYNEKFKGKATFTADISSNTVQMQLSSLTSEDSAVYYCARRDYYGNFYYAMDYWGQGTSVTVSS
VL: DIQMTQSTSSLSASLGDRVTISCSASQGINNYLNWYQQKPDGTVELLIYYTSTLHSGVPSRFSGSGSGTDYSLTISNLEPEDIGTYYCQQYSKLPRTFGGGTKLEIK
Kd [2]: 0.31 nM
koff [2]: 0.00012 s⁻¹
kon [2]: 400000 M⁻¹ s⁻¹

B9: hCD138 (human Syndecan-1, R&D Systems 2780-TS) (domain or fragment)
chain: QIVATNLPPEDQDGSGDDSDNFSGSGAGALQDITLSQQTPSTWKDTQLLTAIPTSPEPTGLEATAASTSTLPAGEGPKEGEAVVLPEVEPGLTAREQEATPRPRETTQLPTTHLASTTTATTAQEPATSHPHRDMQPGHHETSTPAGPSQADLHTPHTEDGGPSATERAAEDGASSQLPAAEGSGEQDFTFETSGENTAVVAVEPDRRNQSPVDQGATGASQGLLDRKEVLG
fold reduction of affinity against the parent Hw-Lw (<CD138> Hg-Lw): > 100 fold
